From US8703913B2, “Sensor” (Medical Research Council, priority 2008, dated 2014)
Changes are numbered by the printed parent chain. Numbers in names are those of the source.

B1: 5-IATR-ParM (WT): wild-type ParM labeled with 5-IATR (conjugate, UniProt P11904 1-320, looked up)
Plasmid segregation protein …: MLVFIDDGSTNIKLQWQESDGTIKQHISPNSFKREWAVSFGDKKVFNYTLNGEQYSFDPISPDAVVTTNIAWQYSDVNVVAVHHALLTSGLPVSEVDIVCTLPLTEYYDRNNQPNTENIERKKANFRKKITLNGGDTFTIKDVKVMPESIPAGYEVLQELDELDSLLIIDLGGTTLDISQVMGKLSGISKIYGDSSLGVSLVTSAVKDALSLARTKGSSYLADDIIIHRKDNNYLKQRINDENKISIVTEAMNEALRKLEQRVLNTLNEFSGYTHVMVIGGGAELICDAVKKHTQIRDERFFKTNNSQYDLVNGMYLIGN
modifications: 5-IATR label
B2: MDCC-ParM (S204C): ParM S204C/C287A labeled with MDCC (conjugate, UniProt P11904 1-320, looked up, variant S204C C287A)
Plasmid segregation protein …: B1 Plasmid segregation protein … with S204C, C287A
modifications: MDCC label
B3: IDCC-ParM (WT): wild-type ParM labeled with IDCC (conjugate, UniProt P11904 1-320, looked up)
Plasmid segregation protein …: B1 Plasmid segregation protein …
modifications: IDCC label
B4: MDCC-ParM (WT): wild-type ParM labeled with MDCC (conjugate, UniProt P11904 1-320, looked up)
Plasmid segregation protein …: B1 Plasmid segregation protein …
modifications: MDCC label
B5: IDCC-ParM (D63C): ParM D63C/C287A labeled with IDCC (conjugate, UniProt P11904 1-320, looked up, variant D63C C287A)
Plasmid segregation protein …: B1 Plasmid segregation protein … with D63C, C287A
modifications: IDCC label
B6: CPM-ParM (S204C): ParM S204C/C287A labeled with CPM (conjugate, UniProt P11904 1-320, looked up, variant S204C C287A)
Plasmid segregation protein …: B1 Plasmid segregation protein … with S204C, C287A
modifications: CPM label
B7: 5-IATR-ParM (I27C) (conjugate, UniProt P11904 1-320, looked up, variant I27C)
Plasmid segregation protein …: B1 Plasmid segregation protein … with I27C
modifications: 5-IATR rhodamine label
B8: CPM-ParM (T215C): ParM T215C/C287A labeled with CPM (conjugate, UniProt P11904 1-320, looked up, variant T215C C287A)
Plasmid segregation protein …: B1 Plasmid segregation protein … with T215C, C287A
modifications: CPM label
B9: MPrCC-ParM (I27C): ParM I27C/C287A labeled with MPrCC (conjugate, UniProt P11904 1-320, looked up, variant I27C C287A)
Plasmid segregation protein …: B1 Plasmid segregation protein … with I27C, C287A
modifications: MPrCC label
B10: IDCC-ParM (T215C): ParM T215C/C287A labeled with IDCC (conjugate, UniProt P11904 1-320, looked up, variant T215C C287A)
Plasmid segregation protein …: B1 Plasmid segregation protein … with T215C, C287A
modifications: IDCC label
B11: IDCC-ParM (S204C): ParM S204C/C287A labeled with IDCC (conjugate, UniProt P11904 1-320, looked up, variant S204C C287A)
Plasmid segregation protein …: B1 Plasmid segregation protein … with S204C, C287A
modifications: IDCC label
B12: CPM-ParM (I27C): ParM I27C/C287A labeled with CPM (conjugate, UniProt P11904 1-320, looked up, variant I27C C287A)
Plasmid segregation protein …: B1 Plasmid segregation protein … with I27C, C287A
modifications: CPM label
B13: IDCC-ParM (I27C): ParM I27C/C287A labeled with IDCC (conjugate, UniProt P11904 1-320, looked up, variant I27C C287A)
Plasmid segregation protein …: B1 Plasmid segregation protein … with I27C, C287A
modifications: IDCC label
B14: Cy3-ParM (I27C): ParM I27C/C287A labeled with Cy3-maleimide (conjugate, UniProt P11904 1-320, looked up, variant I27C C287A)
Plasmid segregation protein …: B1 Plasmid segregation protein … with I27C, C287A
modifications: Cy3-maleimide label
B15: Acrylodan-ParM (WT): wild-type ParM labeled with acrylodan (conjugate, UniProt P11904 1-320, looked up)
Plasmid segregation protein …: B1 Plasmid segregation protein …
modifications: acrylodan label
B16: MIANS-ParM (S204C): ParM S204C/C287A labeled with MIANS (conjugate, UniProt P11904 1-320, looked up, variant S204C C287A)
Plasmid segregation protein …: B1 Plasmid segregation protein … with S204C, C287A
modifications: MIANS label
B17: 5-IATR-ParM (D58C) (conjugate, UniProt P11904 1-320, looked up, variant D58C)
Plasmid segregation protein …: B1 Plasmid segregation protein … with D58C
modifications: 5-IATR rhodamine label
B18: MIANS-ParM (I27C): ParM I27C/C287A labeled with MIANS (conjugate, UniProt P11904 1-320, looked up, variant I27C C287A)
Plasmid segregation protein …: B1 Plasmid segregation protein … with I27C, C287A
modifications: MIANS label
B19: MDCC-ParM (T215C): ParM T215C/C287A labeled with MDCC (conjugate, UniProt P11904 1-320, looked up, variant T215C C287A)
Plasmid segregation protein …: B1 Plasmid segregation protein … with T215C, C287A
modifications: MDCC label
B20: IDCC-ParM (D58C): ParM D58C/C287A labeled with IDCC (conjugate, UniProt P11904 1-320, looked up, variant D58C C287A)
Plasmid segregation protein …: B1 Plasmid segregation protein … with D58C, C287A
modifications: IDCC label
B21: Cy3b-ParM (I27C): ParM I27C/C287A labeled with Cy3B-maleimide (conjugate, UniProt P11904 1-320, looked up, variant I27C C287A)
Plasmid segregation protein …: B1 Plasmid segregation protein … with I27C, C287A
modifications: Cy3B label
B22: 6-IATR-ParM (WT): wild-type ParM labeled with 6-IATR (conjugate, UniProt P11904 1-320, looked up)
Plasmid segregation protein …: B1 Plasmid segregation protein …
modifications: 6-IATR label
B23: MIANS-ParM (WT): wild-type ParM labeled with MIANS (conjugate, UniProt P11904 1-320, looked up)
Plasmid segregation protein …: B1 Plasmid segregation protein …
modifications: MIANS label
B24: MDCC-ParM (D63C): ParM D63C/C287A labeled with MDCC (conjugate, UniProt P11904 1-320, looked up, variant D63C C287A)
Plasmid segregation protein …: B1 Plasmid segregation protein … with D63C, C287A
modifications: MDCC label
B25: 5-IATR-ParM (D63C) (conjugate, UniProt P11904 1-320, looked up, variant D63C)
Plasmid segregation protein …: B1 Plasmid segregation protein … with D63C
modifications: 5-IATR rhodamine label
B26: MDCC-ParM (D58C): ParM D58C/C287A labeled with MDCC (conjugate, UniProt P11904 1-320, looked up, variant D58C C287A)
Plasmid segregation protein …: B1 Plasmid segregation protein … with D58C, C287A
modifications: MDCC label
B27: Alexa 488-ParM (I27C): ParM I27C/C287A labeled with AlexaFluor-488-maleimide (conjugate, UniProt P11904 1-320, looked up, variant I27C C287A)
Plasmid segregation protein …: B1 Plasmid segregation protein … with I27C, C287A
modifications: Alexa Fluor 488 label
B28: MPrCC-ParM (T215C): ParM T215C/C287A labeled with MPrCC (conjugate, UniProt P11904 1-320, looked up, variant T215C C287A)
Plasmid segregation protein …: B1 Plasmid segregation protein … with T215C, C287A
modifications: MPrCC label

experiment: Screening mutant/fluorophore combinations for a fluorescence response to ADP; details: ParM mutant/fluorophore combination

With B1 as the molecule, how does the “Fluorescence change, ratio of the intensity in presence of 1 mM ADP to that in the absence of ADP” value (from here on “Fluorescence change, ratio”) read?
Its value is 0.74.

For B2, which “Fluorescence change, ratio” value is on record?
The value was 0.68.

With B3 as the molecule, how does the “Fluorescence change, ratio” value read?
The value was 0.34.

With B4 as the molecule, how does the “Fluorescence change, ratio” value read?
Its value is 0.27.

With B5 as the molecule, how does the “Fluorescence change, ratio” value read?
Its value is 0.53.

For B6, which “Fluorescence change, ratio” value is on record?
Its value is 0.62.

For B7, which “Fluorescence change, ratio” value is on record?
Its value is 1.3.

With B8 as the molecule, how does the “Fluorescence change, ratio” value read?
The value was 0.76.

With B9 as the molecule, how does the “Fluorescence change, ratio” value read?
Its value is 1.1.

With B10 as the molecule, how does the “Fluorescence change, ratio” value read?
Its value is 0.74.

For B11, which “Fluorescence change, ratio” value is on record?
Its value is 0.80.

With B12 as the molecule, how does the “Fluorescence change, ratio” value read?
Its value is 0.62.

For B13, which “Fluorescence change, ratio” value is on record?
Its value is 1.5.

For B14, which “Fluorescence change, ratio” value is on record?
The value was 1.2.

With B15 as the molecule, how does the “Fluorescence change, ratio” value read?
The value was 0.59.

For B16, which “Fluorescence change, ratio” value is on record?
The value was 0.91.

With B17 as the molecule, how does the “Fluorescence change, ratio” value read?
The value was 0.83.

With B18 as the molecule, how does the “Fluorescence change, ratio” value read?
Its value is 0.72.

Which “Fluorescence change, ratio” value does the source give for B19 here?
The value was 0.74.

Which “Fluorescence change, ratio” value does the source give for B20 here?
Its value is 0.93.

With B21 as the molecule, how does the “Fluorescence change, ratio” value read?
Its value is 0.83.

Which “Fluorescence change, ratio” value does the source give for B22 here?
The value was 0.70.

Which “Fluorescence change, ratio” value does the source give for B23 here?
Its value is 0.50.

Which “Fluorescence change, ratio” value does the source give for B24 here?
Its value is 0.48.

For B25, which “Fluorescence change, ratio” value is on record?
The value was 0.80.

With B26 as the molecule, how does the “Fluorescence change, ratio” value read?
The value was 0.82.

With B27 as the molecule, how does the “Fluorescence change, ratio” value read?
The value was 0.78.

Which “Fluorescence change, ratio” value does the source give for B28 here?
Its value is 0.78.
